Entries after “also recorded” stand apart in the source; their conditions may differ. Each block holds one molecule with its values, some of them ahead of it.
Legend:
[1] = tested on: Gas6-mediated Axl signalling (phosphorylation of Akt on Ser^473); experiment: Gas6-induced Axl downstream signalling, Western blot of phospho-Akt (Ser^473); type: cell-based, human; settings: HeLa cells, 1 μg/mL antibody for 1 hr, then mouse Gas6 10 μg/mL for 20 min
Experimental: Western blot analysis illustrating inhibition of Gas6-mediated Axl signalling in the presence of mouse monoclonal antibodies 10C9 and 10G5. Phosphorylation of Akt on Ser^473 was used as surrogate readout for Axl activity. M, molecular weight markers. Immunoblots of total cell lysates were probed with anti-phospho-Akt (Ser^473), or anti-GAPDH (glyceraldehyde 3-phosphate dehydrogenase) as loading control.
The experiments were performed using human cervical cancer derived cell line HeLa (ATCC® CCL-2™). The cells were grown in T175 flasks to 80% confluency in MEM culture medium (Sigma) supplemented with 10% FBS, penicillin-streptomycin and L-glutamine. The cells were washed with PBS and detached by treatment with 0.25% Trypsin/EDTA (Sigma) followed by centrifugation and resuspension in fresh medium (MEM/0.5% FBS). The cells were seeded in Petri dishes (3×10^6 cells per dish) in MEM medium supplemented with 10% FBS. After three hrs incubation at 37° C., the cells were washed with PBS and kept in starvation medium (MEM/0.5% FBS) overnight. The cells were pre-incubated with anti-Axl antibody 10C9 or 10G5 at concentration 1 μg/mL for 1 hr followed by stimulation with Axl ligand, recombinant mouse Gas6 (R&D Systems), at concentration 10 μg/mL for 20 min. […] Detection with anti-GAPDH antibody (Millipore) was used as loading control.

[2] = tested on: cyno-Axl (Axl receptor from cynomolgus monkey); experiment: Biacore binding analysis on immobilized cyno-Axl; set-up: species or system Macaca fascicularis; settings: 10 μg/mL, 25° C.
Experimental: The sequence of Axl receptor from cynomolgus monkey (Macaca fascicularis; SEQ ID NO.43) was retrieved from WO2009062690A1. Based on the sequence, recombinant extracellular domain of cyno-Axl was generated by transient expression in CHO cells as a fusion protein with human Fc. The recombinant cyno-Axl-Fc was purified to homogeneity using Protein A-Sepharose (GE Healthcare). The binding experiments were performed using Biacore 3000 instrument (GE Healthcare) at 25° C. The soluble recombinant antigens corresponding to human Axl (rhAxl-Fc chimera; R&D Systems, Cat. no. 154-AL) and cyno-Axl were immobilized on the surface of CM5 sensor chip using amine coupling at the surface density of 775 and 880 RU, respectively. The Biacore runs were performed in an automatic mode using Binding analysis wizard.
The sample containing either MAb 10C9, MAb 10G5 or human Axl-specific MAb 5F11 (control) at concentration 10 μg/mL in HBS-EP buffer (GE Healthcare) was injected over the surfaces with immobilized antigens at flow rate of 30 μL/min for 3 min (association) followed by 5 min dissociation.

MDA-MB-231 cells = experiment: Treatment of established stellate-shaped 3D tumour masses; type: cell-based, human; settings: MDA-MB-231, 72 hours, versus control IgG
Experimental: Effect of anti-Axl antibodies 10C9 and 10G5 on established 3D organotypic tumour masses. The developed 9-days old stellate-shaped 3D organoid masses of human mammary carcinoma cells (MDA-MB-231) were treated with either control IgG or anti-Axl antibodies 10C9 and 10G5 for 72 hours. Images were captured using bright field; arrows indicate apoptotic, degrading stellate-shaped cells.
MDA-MB-231 cells were grown on extracellular matrix and allowed to form the highly aggressive stellate shaped morphology. Stellate-shaped tumour masses were then treated with the control IgG and antibodies 10C9 and 10G5, as described in EXAMPLE 7.

Axl^+ cells = experiment: Flow cytometry binding of hybridoma antibody clones to Axl+ cells; type: cell-based; settings: hybridoma clone selection
Experimental: For flow cytometry, the adherent cells in culture were washed with PBS, detached by trypsin (0.25%) treatment for 1 min and hitting culture dish for full detachment. Trypsin was quenched by adding into the tissue flask the complete medium followed by washing the cells with PBS. During the washing steps, the cells were collected by centrifugation at 200 g for 5 min. The antibody was diluted for total concentration in PBS containing 0.02% bovine serum albumin (BSA).
Cell staining was performed using 200 μL of cell suspension comprising 10^5 cells for 20 min at room temperature. After two washing steps with PBS/0.02% BSA, the cells were resuspended in 200 μL incubated with an APC-conjugated donkey anti-mouse IgG (H+L) secondary antibody (Jackson Laboratories, Cat. no. 715-136-150) at concentration 2 μg/mL for 20 min at room temperature. The stained cells were washed twice with PBS/0.02% BSA and kept on ice before analysis using a BD LSR Fortessa cell analyzer (BD Biosciences).

A549 tumours = experiment: A549 NSCLC xenograft in nude mice; type: in vivo, mouse
Experimental: Inhibition of A549 xenograft tumour growth by chimeric antibody 10G5. The antibody was administrated intraperitoneally at 20 mg/kg, twice a week, starting when the mean tumour size reached 100 mm^3. Tumour growth curves for the groups treated with either vehicle (sterile PBS) or chimeric 10G5 are shown. Error bars represent standard error of the mean (SEM). Statistical analysis was performed using two-way ANOVA. **, P<0.01.
To evaluate the anti-tumour activity of anti-Axl chimeric antibodies in vivo, we used a mouse xenograft model of human non-small cell lung cancer (NSCLC). The human NSCLC A549 cells (ATCC #CCL-185) A549 cells were propagated in vitro as a monolayer culture in DMEM medium supplemented with 10% FBS, 2 mM L-Glutamine, 100 U/ml penicillin and 100 μg/ml streptomycin, 0.01M HEPES buffer, 0.45% D-(+)-glucose, 1 mM sodium pyruvate. Nude mice were implanted subcutaneously (s.c.) into the flank with 5×10^6 A549 cells resuspended in serum-free medium/Matrigel (1:1). When the tumour size reached 100 mm^3 (Day 0 in FIG. 14), the animals were randomized and treated with either vehicle (sterile PBS) or anti-Axl chimeric antibody 10G5 at 20 mg/kg, by intraperitoneal (i.p.) injections twice weekly for 4 weeks.

cyno-Axl (Axl receptor from cynomolgus monkey), sequence (as listed by the source): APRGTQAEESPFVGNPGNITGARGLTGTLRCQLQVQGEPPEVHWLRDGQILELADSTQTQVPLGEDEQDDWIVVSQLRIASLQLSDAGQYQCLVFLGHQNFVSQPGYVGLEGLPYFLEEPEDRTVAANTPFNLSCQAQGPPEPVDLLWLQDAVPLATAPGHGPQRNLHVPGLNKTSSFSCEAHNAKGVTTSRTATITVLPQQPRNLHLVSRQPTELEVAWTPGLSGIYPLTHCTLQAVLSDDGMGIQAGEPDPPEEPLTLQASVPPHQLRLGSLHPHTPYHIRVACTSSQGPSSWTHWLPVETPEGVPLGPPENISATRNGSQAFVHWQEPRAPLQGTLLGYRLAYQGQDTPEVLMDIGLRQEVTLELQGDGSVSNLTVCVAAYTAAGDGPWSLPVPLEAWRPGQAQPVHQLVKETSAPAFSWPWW

binding to Axl from cynomolgus monkey [2]: strong and specific interaction
binding to Axl from cynomolgus monkey ([2]; listed as 1009): bind strongly
B1: 10C9: mouse anti-Axl monoclonal antibody from hybridoma UT-10C9-B9, IgG2b; VH SEQ ID NO: 3, VL SEQ ID NO: 4 (antibody, listed as Mus musculus, V domains shown)
VH: QVQLQQPGPELVKPGASVKISCKTSDYNFTRYYIHWVKQRPGQGLEWIGWIYPGTGDSKYNEKFKGRATLTADTSSSTAYMQLSSQTSEDSAVYFCARNGNYWYFDVWGAGTAVTVSS
VL: DIVMTQAAPSGPVTPGESVSISCRSSKSLLHSNGNTYLYWFLQRPGQSPQLLIYRMSNLASGVPDRFSGSGSGTAFTLRISRVEAEDVGIYYCMQHREYPFTFGGGTKLEIK
Gas6-induced phosphorylation of Akt on Ser^473 [1]: significantly reduces; also recorded: significantly be reduced
effect on established stellate-shaped 3D tumour masses (MDA-MB-231 cells): degradation of stellate patterns
binding to Axl^+ cells in flow cytometry (Axl^+ cells): specific binding

B2: 10G5: mouse anti-Axl monoclonal antibody from hybridoma WR-10G5-E5, IgG1; VH SEQ ID NO: 21, VL SEQ ID NO: 22 (antibody, listed as Mus musculus, V domains shown)
VH: QVQLQQSGAELVRPGASVKLSCKASGYSFTDFYINWVRQRPGQGLEWIARIFPGGDNTYYNEKFKGKATLTAEESSSTAYIQLSSLTSEDSAVYFCARRGLYYAMDYWGQGISVTVSS
VL: DVLMTQTPLSLPVSLGDQASISCRSSQSLVHSNGIPYLHWYLQKPGQSPKLLIYRVSNRFSGVPDRFSGSGSGTDFTLKISRVEAEDLGVYFCSQGTHVPPTFGGGTKLEIK
binding to Axl from cynomolgus monkey [2]: bind strongly; also recorded: strong and specific interaction
effect on established stellate-shaped 3D tumour masses (MDA-MB-231 cells): degradation of stellate patterns
binding to Axl^+ cells in flow cytometry (Axl^+ cells): specific binding

B3: c10G5: chimeric (mouse variable/human constant) IgG1 variant of antibody 10G5 (antibody)
heavy: B2 VH
light: B2 VL
modifications: left off: a dimerising Fc or GST
notes: chimeric (mouse variable/human constant) IgG1 variant of antibody 10G5
growth of A549 tumours compared with the control (A549 tumours; 20 mg/kg i.p. twice weekly for 4 weeks, P<0.01, two-way ANOVA): significantly attenuated growth of A549 tumours
inhibition of tumour growth (A549 tumours; 20 mg/kg i.p. twice weekly, after four weeks of treatment, versus vehicle (PBS)): around 40%

Source: patent US10208121B2, “Anti-Axl antagonistic antibodies” (BERGEN TEKNOLOGIOVERFORING AS, priority 2014, dated 2019)
